Test results taken from PMC2185595 (The Journal of Cell Biology, 2000).
Blank lines part the entries; values can stand above or below the binder they belong to.

How the values were obtained:
[1] = biological target: T1, Vps11 (two-hybrid fusion) (S. cerevisiae, UniProt P12868 1-1029); assay: two-hybrid
T1 sequence: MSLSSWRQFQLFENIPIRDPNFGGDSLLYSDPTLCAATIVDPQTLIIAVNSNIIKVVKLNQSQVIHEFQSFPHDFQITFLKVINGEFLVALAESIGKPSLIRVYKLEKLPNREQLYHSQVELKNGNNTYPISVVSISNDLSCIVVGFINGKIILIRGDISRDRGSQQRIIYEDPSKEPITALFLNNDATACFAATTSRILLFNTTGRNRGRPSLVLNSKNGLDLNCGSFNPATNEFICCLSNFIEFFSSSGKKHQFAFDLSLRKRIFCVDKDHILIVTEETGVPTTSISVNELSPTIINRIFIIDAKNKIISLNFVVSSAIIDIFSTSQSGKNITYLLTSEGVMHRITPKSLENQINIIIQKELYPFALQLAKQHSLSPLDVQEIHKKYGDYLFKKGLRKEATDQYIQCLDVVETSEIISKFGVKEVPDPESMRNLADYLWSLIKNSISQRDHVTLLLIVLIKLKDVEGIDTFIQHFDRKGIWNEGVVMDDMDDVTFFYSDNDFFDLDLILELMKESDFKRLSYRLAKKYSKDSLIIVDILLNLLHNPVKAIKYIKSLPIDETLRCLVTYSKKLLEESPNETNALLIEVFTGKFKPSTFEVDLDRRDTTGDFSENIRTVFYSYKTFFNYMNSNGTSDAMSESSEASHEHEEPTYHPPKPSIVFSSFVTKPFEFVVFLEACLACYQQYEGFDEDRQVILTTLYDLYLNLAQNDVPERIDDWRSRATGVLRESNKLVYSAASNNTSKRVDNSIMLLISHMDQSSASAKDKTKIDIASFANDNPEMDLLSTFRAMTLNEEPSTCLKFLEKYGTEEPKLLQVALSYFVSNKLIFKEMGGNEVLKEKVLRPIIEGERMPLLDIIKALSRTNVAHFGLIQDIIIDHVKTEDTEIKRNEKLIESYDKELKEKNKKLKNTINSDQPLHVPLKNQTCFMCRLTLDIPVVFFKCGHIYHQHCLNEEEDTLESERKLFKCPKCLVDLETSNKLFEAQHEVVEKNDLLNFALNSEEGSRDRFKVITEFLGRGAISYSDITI

[2] = biological target: Ypt7 (two-hybrid fusion, ypt7 C206S, C208S) (S. cerevisiae, UniProt P32939 1-208, C206S | C208S); assay: two-hybrid
[3] = biological target: Ypt7 Q68L (two-hybrid fusion) (S. cerevisiae, UniProt P32939 1-208, Q68L | C206S | C208S); assay: two-hybrid
[4] = biological target: Ypt7 T40A (two-hybrid fusion) (S. cerevisiae, UniProt P32939 1-208, T40A | C206S | C208S); assay: two-hybrid
[5] = biological target: Ypt7 I41S (two-hybrid fusion) (S. cerevisiae, UniProt P32939 1-208, I41S | C206S | C208S); assay: two-hybrid
[6] = biological target: Ypt7 D129A (two-hybrid fusion) (S. cerevisiae, UniProt P32939 1-208, D129A | C206S | C208S); assay: two-hybrid
[7] = biological target: Ypt7 T22N (two-hybrid fusion) (S. cerevisiae, UniProt P32939 1-208, T22N | C206S | C208S); assay: two-hybrid
[8] = biological target: T2, Vps21 (two-hybrid fusion) (S. cerevisiae, UniProt P36017 1-210); assay: two-hybrid
T2 sequence: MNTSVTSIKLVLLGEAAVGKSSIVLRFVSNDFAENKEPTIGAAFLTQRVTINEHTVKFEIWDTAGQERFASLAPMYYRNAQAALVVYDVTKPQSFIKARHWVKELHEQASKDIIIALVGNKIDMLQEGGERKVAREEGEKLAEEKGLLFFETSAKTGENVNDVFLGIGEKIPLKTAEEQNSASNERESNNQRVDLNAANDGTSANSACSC

Ras1 (two-hybrid fusion) = biological target: T3, Ras1 (two-hybrid fusion) (UniProt P01119 1-309); assay: two-hybrid
T3 sequence: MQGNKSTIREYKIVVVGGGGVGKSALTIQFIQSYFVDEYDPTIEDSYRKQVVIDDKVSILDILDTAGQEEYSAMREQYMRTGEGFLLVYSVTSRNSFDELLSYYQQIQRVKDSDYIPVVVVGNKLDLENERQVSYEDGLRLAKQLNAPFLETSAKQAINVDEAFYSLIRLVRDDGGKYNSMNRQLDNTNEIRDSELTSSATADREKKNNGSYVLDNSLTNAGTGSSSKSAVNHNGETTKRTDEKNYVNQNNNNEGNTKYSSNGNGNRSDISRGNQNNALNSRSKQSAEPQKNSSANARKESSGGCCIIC

protein A–Vps39 = biological target: T4, protein A–Vps39 (S. cerevisiae, UniProt Q07468 1-1049); assay: pull-down
T4 sequence: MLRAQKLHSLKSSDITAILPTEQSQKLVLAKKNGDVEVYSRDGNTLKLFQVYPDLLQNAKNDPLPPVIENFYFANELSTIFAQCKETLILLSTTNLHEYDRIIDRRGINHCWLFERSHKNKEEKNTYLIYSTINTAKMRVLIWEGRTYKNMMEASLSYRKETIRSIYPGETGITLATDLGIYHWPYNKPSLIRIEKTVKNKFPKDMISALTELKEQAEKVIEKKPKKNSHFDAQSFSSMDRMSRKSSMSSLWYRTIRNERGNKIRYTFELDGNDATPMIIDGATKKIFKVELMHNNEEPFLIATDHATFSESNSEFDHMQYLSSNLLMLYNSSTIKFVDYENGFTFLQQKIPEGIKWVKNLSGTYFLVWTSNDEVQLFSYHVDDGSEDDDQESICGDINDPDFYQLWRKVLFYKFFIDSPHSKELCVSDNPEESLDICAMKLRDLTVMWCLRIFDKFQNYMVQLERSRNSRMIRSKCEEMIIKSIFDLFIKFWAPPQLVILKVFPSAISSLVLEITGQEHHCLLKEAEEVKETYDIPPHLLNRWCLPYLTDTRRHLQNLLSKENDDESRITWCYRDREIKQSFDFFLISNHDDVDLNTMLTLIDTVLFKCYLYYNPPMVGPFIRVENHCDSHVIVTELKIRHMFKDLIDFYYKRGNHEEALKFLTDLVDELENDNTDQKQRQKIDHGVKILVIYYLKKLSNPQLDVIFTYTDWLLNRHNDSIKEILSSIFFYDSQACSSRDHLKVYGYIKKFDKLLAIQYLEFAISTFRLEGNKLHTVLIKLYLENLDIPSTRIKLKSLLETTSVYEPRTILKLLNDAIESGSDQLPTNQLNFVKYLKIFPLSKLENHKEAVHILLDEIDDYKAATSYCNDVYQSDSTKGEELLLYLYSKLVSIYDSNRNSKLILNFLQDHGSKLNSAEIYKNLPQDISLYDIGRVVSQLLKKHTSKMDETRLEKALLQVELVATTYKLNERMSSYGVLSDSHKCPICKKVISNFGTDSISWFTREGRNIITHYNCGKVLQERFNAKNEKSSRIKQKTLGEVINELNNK

β-galactosidase activity [1]: 2.8 U
β-galactosidase activity [2]: ~4 U
β-galactosidase activity [3]: ~3 U
β-galactosidase activity [4]: ~13 U
β-galactosidase activity [5]: ~13 U
β-galactosidase activity [6]: 31 U
β-galactosidase activity [7]: ~5 U
β-galactosidase activity [8]: < 0.25 U
β-galactosidase activity (Ras1 (two-hybrid fusion)): < 0.25 U
B1: Vps39 (two-hybrid fusion) (natural protein)
chain: T4 sequence

binding result (protein A–Vps39): binds
B2: GST-Ypt7 (natural protein)
chain: MSSRKKNILKVIILGDSGVGKTSLMHRYVNDKYSQQYKATIGADFLTKEVTVDGDKVATMQVWDTAGQERFQSLGVAFYRGADCCVLVYDVTNASSFENIKSWRDEFLVHANVNSPETFPFVILGNKIDAEESKKIVSEKSAQELAKSLGDIPLFLTSAKNAINVDTAFEEIARSALQQNQADTEAFEDDYNDAINIRLDGENNSCSC
